According to PMC3355305, “Localized Dimerization and Nucleoid Binding Drive Gradient Formation by the Bacterial Cell Division Inhibitor MipZ” (Molecular Cell, 2012):

System: MipZ dimer
Test: Concentration dependence of the MipZ ATPase activity
Assay type: biochemical, Caulobacter crescentus
Protocol: Figure 2 Biochemical Analysis of MipZ Dimerization (A) ATPase cycle of MipZ. See the main text for details. (B and C) SPR analysis of MipZ self-association. MipZ or its mutant derivatives (3500 RU) were immobilized on a sensor chip and tested for homotypic interaction with the respective soluble protein (0.5 μM) in the presence of ADP (B) or ATP (C). After the binding phase, the chip was washed with buffer lacking protein and nucleotides to follow the dissociation reaction. The rate constants (koff) determined for the dissociation of the MipZ and MipZ-D42A complexes are 0.83 min^−1 and 0.067 min^−1, respectively. (D) Nucleotide-dependent dimerization of MipZ. MipZ-D42A was incubated with ADP (blue), ATP (orange) or ATPγS (red) and subjected to size exclusion chromatography. (E) ATPase activity of MipZ and its mutant derivatives. The graph gives the average turnover rate (kapp, average turnovers/min per molecule of MipZ) of the different MipZ derivatives (6 μM). Data represent the average of at least three independent experiments (±SD). Note that consistent with a critical role of the metal cofactor in dimerization and catalysis Mg^2+ was required for ATP turnover (Figure S2H). (F) Concentration dependence of the MipZ ATPase activity. The average turnover rate of MipZ (kapp) was determined at the indicated protein concentrations. Fitting of the data to a model that relates kapp to the relative abundance of dimers at the indicated MipZ concentrations (see the Experimental Procedures) yielded values of 8.0 μM (±1.2 μM) for the apparent equilibrium dissociation constant (K) of the MipZ dimer and 0.67 min^−1 (±0.03 min^−1) for the turnover number (kcat) of MipZ molecules in the dimeric state. The rate of dimer formation (kon ∼ kcat/K) derived from these values is 1.4 × 10^3 M^−1 s^−1. Data represent the mean of two independent experiments. See also Figure S2. TEXT PRINTED IN THE PICTURE: (F) MipZ: K = 8.0 μM; kcat = 0.67 min^-1 […]
According to the law of mass action, MipZ exists as a mixture of monomers (assumed to be largely in the ATP-bound state) and dimers, the equilibrium ratio of which depends on the total concentration of MipZ molecules in the reaction. […] Its average turnover rate (kapp) increased with rising protein concentrations and finally approached a plateau that likely reflects a situation in which all MipZ molecules have transitioned to the active, dimeric state. […]
β-galactosidase, MipZ, and FtsZ activity assays are detailed in the Supplemental Experimental Procedures. […]
obtained from crystals flash frozen in a solution of 95% 2 mM, sa mp le s were taken and analyzed for the amount ethanol/50 mM Tris (pH 8.5), and collected at ID23-2, of [α-32P]-GDP produced in the reaction as described ESRF (Grenoble, France). […]

B1: MipZ: P loop ATPase and cell division inhibitor of Caulobacter crescentus; hexahistidine-tagged in vitro, YFP fusion in FRAP (protein)
chain: MAETRVIVVGNEKGGAGKSTIAVHLVTALLYGGAKVAVIDLDLRQRTSARFFENRRAWLDNKKIELPEPLALNLSDNDVALAERPEEEQVAGFEAAFARAMAECDFILIDTPGGDSAITRMAHGRADLVVTPMNDSFVDFDMLGTVDPVTLELTKPSLYSLTVWEGRKQRALSGQRQAMDWVVLRNRLATTEARNRKRLEDRLNALAKRVGFRIGPGLRDRVIYRELFPFGLTIADLSPQVRPVPVSLQHLAARQELRALMHSLGLSAYSGETMLAAQ
modifications: left off: His6, end not stated, state not stated
notes: hexahistidine-tagged in vitro, YFP fusion in FRAP
- turnover number (kcat) of MipZ molecules in the dimeric state (ATP hydrolysis, fit of kapp vs MipZ concentration): 0.67 min⁻¹
- rate of dimer formation (kon ∼ kcat/K) (derived from K and kcat): 1400 M⁻¹ s⁻¹
- Kd (fit of kapp vs MipZ concentration, 2 mM ATP, read-out: apparent equilibrium dissociation constant (K) of the MipZ dimer): 8 µM
- lifetime of the sandwich dimer (τ ∼ 1/kcat) (hydrolysis-driven dissociation): ~90 s
